# Results taken from the RNAGym collection of RNA variant scans (doi:10.1073/pnas.2313332121).
# Variants at the floor of the assay were thinned out.
# B1: TPR 5TU (parent)
# chain: GGAUCUUCUCGAUCUAACAAAAAAGACAAAUCUGCCACAAAGCUUGAGAGCAUCUUCGGAUGCAGAGGCGGCAGCCUUCGGUGGCGCGAUAGCGCCAACGUUCUCAACUAUGACACGCAAAACGCGUGCUCCGUUGAAUGGAGUUUAUCAUG
# Variants of: B1
# Experiment: polymerase ribozyme fitness, log enrichment relative to wild type (log ratio); higher = more active; in vitro selection for triplet polymerase activity
# How it was run: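 Libraries of mutants in each subunit of a heterodimeric triplet polymerase ribozyme were generated by PCR and transcribed. In triplicate, each went through one in vitro selection round: annealing with biotinylated primer, partner subunit and triplets; frozen incubation at −7 °C; gel excision of extended constructs; streptavidin-bead capture; RT-PCR. Fitness, taken from Illumina sequencing of input and output libraries, is the logarithm of a genotype's enrichment over wild-type enrichment, averaged across replicates with inverse-variance weights. The logarithm is base 2, and genotypes needed ≥10 input reads and ≥1 read per output to be kept.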
row,Variant,polymerase ribozyme fitness (log ratio)
1,U61G G117C A142C U146G,≤ -4.2
2,G62C A64G G83C U102G C114U U127G,≤ -4.2
3,C72U C87A A137C U139A,≤ -4.2
4,C69A C85U,-1.65
5,A73G G88C A107U C129U U139C U148A,≤ -4.2
6,G68C C69A G92U G136A,-4.11
7,G71U G80C C93U A97U C132A,≤ -4.2
8,U61A U77G C85U C125A,≤ -4.2
9,G62A C76U,-1.26
10,A66U C87G U90G U102A C132U,≤ -4.2
11,C63U C79U G88C U90G C95A C99U A107U,≤ -4.2
12,C63A C93U A98C,-1.62
13,A64C A66U A122G,≤ -4.2
14,A66C U134C,≤ -4.2
15,A66G A97U,≤ -4.2
16,C72U G86A G100C C131A U135A,≤ -4.2
17,C63A C85U,-0.129
18,C69U U102C,-2.59
19,A73G A115G G141A,-2.44
20,G71A C132U,-3.5
21,A64G G86A,-4.08

row,Variant,polymerase ribozyme fitness (log ratio)
1,A64U C103G U134G G141C,≤ -4.2
2,G65U G84U G88A,≤ -4.2
3,C69A G81A,-1.51
4,C72U C79A C85U,≤ -4.2
5,G67U C96G,-3.31
6,G62U C103U,-0.754
7,A73C C87A,≤ -4.2
8,G68A G83U G88A A107U C114U,≤ -4.2
9,A66G U104A U134G G136C,≤ -4.2
10,G62A C87U C116U G117U,-0.42
11,G65A U139C G141C,-3.69
12,U61A G65C U82G C118A A138U U151A,≤ -4.2
13,G65C G92A A137C G141C,≤ -4.2
14,C63U G141C,-0.69
15,G68A C105U,-3.51
16,G68A G88A C116A A119U,-3.78
17,G68U C85U,≤ -4.2
18,C63A U144C U145A,-2.97
19,U61A U109G,-2.11
20,G68U C79G G84A C105U A147U,≤ -4.2
21,G71A A91G C93U,≤ -4.2

row,Variant,polymerase ribozyme fitness (log ratio)
1,G65A G70A G94A C116U G143U,≤ -4.2
2,U61A G84A U134A,-3.68
3,G65C C149G,≤ -4.2
4,G70A,-2.75
5,G70C,-2.92
6,G70U,-1.81
7,C69A U77G C118U U139C,≤ -4.2
8,U61G G124C,-3.25
9,A64G G68U U144A,≤ -4.2
10,A64U A73G A89C G92A A150U,≤ -4.2
11,C72A A147C,≤ -4.2
12,C72A C93A,≤ -4.2
13,G62C G68A U82G C93A A97G C118A G143U,≤ -4.2
14,C63A C85G U134A,-4.18
15,A73G G83C U145G,-2.01
16,C69G A91G,-3.88
17,G68A U90G A150U,≤ -4.2
18,A66G C76A,-3.94
19,A73G G94A A97U A120U,-1.74
20,U61A G86A,-2.67
21,A73G A122C,0.468

row,Variant,polymerase ribozyme fitness (log ratio)
1,G68A C85U C105A G124A G133U,≤ -4.2
2,C63A G84A A121C A142U U145A A150C,≤ -4.2
3,A64G C103G U148G,≤ -4.2
4,A73G C87G G88C G124C U127G G143C U144A,≤ -4.2
5,A66G A89U C95G C116A C123A,≤ -4.2
6,G70A C93A C123U,≤ -4.2
7,C69A U78G U90G G128A C131U,≤ -4.2
8,G68A G81U C96A,-3.57
9,G62A G92A C116U,-2.52
10,A64C C85G G140A,≤ -4.2
11,G67C C85U G126U G133C G143A,≤ -4.2
12,G65A G124U,-1.24
13,A66G G88U A119G U139G,≤ -4.2
14,A66U C85U U102C A107G G143C,≤ -4.2
15,A64U A66G U77C C96G C103G C116A,≤ -4.2
16,C63A G70A G84A,≤ -4.2
17,G68C C93U,-4.04
18,C63G G92A,-2.18
19,G67A C87U C103U C114G C116U A119G,≤ -4.2
20,A64G G84U,-4.16
